Data on ten molecules can be found in PMC7055227, “Complete Profiling of Methyl-CpG-Binding Domains for Combinations of Cytosine Modifications at CpG Dinucleotides Reveals Differential Read-out in Normal and Rett-Associated States”.

The term Kd denotes the equilibrium constant for the complex coming apart.

In data set [1] the target is hMeCP2 MBD (Homo sapiens, UniProt P51608 90-181). As to the kind of experiment: EMSA; 20 mM HEPES, 30 mM KCl, 1 mM EDTA, 10 mM (NH4)2SO4, pH 7.3, 1 mM DTT, 0.2% Tween 20, 50 ng/uL poly(dA)-poly(dT) trap, 2 nM duplex, protein in dialysis buffer with BSA; 20 min room temperature; gel at 4 C. As to conditions: protein: recombinant, label: 5' 6-FAM on strand 1. A general note: Mobility shift assays separate free from complexed probe on a gel.

Data set [2] deals with T1, hMBD4 MBD (Homo sapiens, UniProt O95243). As to the kind of experiment: EMSA; higher than mC/hmC; EMSA: 20 mM HEPES pH 7.3, 30 mM KCl, 1 mM EDTA, 10 mM (NH4)2SO4, 1 mM DTT, 0.2% Tween 20, 50 ng/uL poly(dA)-poly(dT), protein diluted in dialysis buffer with 0.1 mg/mL BSA; 2 nM duplex; 20 min at room temperature; gel at 4 C. Particulars: protein: recombinant; tags: N-term SpA(Z)-Factor Xa-TEV, C-term 8xHis; label: 5' 6-FAM on strand 1; blunt.

Data set [3] has as its target T1, hMBD4 MBD. Description: EMSA; new preferred combination; EMSA: 20 mM HEPES pH 7.3, 30 mM KCl, 1 mM EDTA, 10 mM (NH4)2SO4, 1 mM DTT, 0.2% Tween 20, 50 ng/uL poly(dA)-poly(dT), protein diluted in dialysis buffer with 0.1 mg/mL BSA; 2 nM duplex; 20 min at room temperature; gel at 4 C. As to conditions: protein: recombinant; tags: N-term SpA(Z)-Factor Xa-TEV, C-term 8xHis; label: 5' 6-FAM on strand 1; blunt.

For data set [4], the target named is T1, hMBD4 MBD. As to the kind of experiment: EMSA; lower than mC/fC; EMSA: 20 mM HEPES pH 7.3, 30 mM KCl, 1 mM EDTA, 10 mM (NH4)2SO4, 1 mM DTT, 0.2% Tween 20, 50 ng/uL poly(dA)-poly(dT), protein diluted in dialysis buffer with 0.1 mg/mL BSA; 2 nM duplex; 20 min at room temperature; gel at 4 C. As to conditions: protein: recombinant; tags: N-term SpA(Z)-Factor Xa-TEV, C-term 8xHis; label: 5' 6-FAM on strand 1; blunt.

The target in data set [5] is hMeCP2 MBD (Homo sapiens, UniProt P51608). Description: EMSA; poly(dA)-poly(dT) 50 ng/uL; EMSA: 20 mM HEPES pH 7.3, 30 mM KCl, 1 mM EDTA, 10 mM (NH4)2SO4, 1 mM DTT, 0.2% Tween 20, 50 ng/uL poly(dA)-poly(dT), protein diluted in dialysis buffer with 0.1 mg/mL BSA; 2 nM duplex; 20 min at room temperature; gel at 4 C. As to conditions: protein: recombinant; tags: N-term SpA(Z)-Factor Xa-TEV, C-term 8xHis; label: 5' 6-FAM on strand 1; blunt.
hMeCP2 MBD (Homo sapiens, UniProt P51608), sequence (P51608 90-181): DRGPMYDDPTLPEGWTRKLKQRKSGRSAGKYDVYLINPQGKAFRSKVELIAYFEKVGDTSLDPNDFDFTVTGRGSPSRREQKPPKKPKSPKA

hMeCP2 MBD (Homo sapiens, UniProt P51608 90-181), sequence (P51608 90-181): as above
T1 sequence (O95243 76-167): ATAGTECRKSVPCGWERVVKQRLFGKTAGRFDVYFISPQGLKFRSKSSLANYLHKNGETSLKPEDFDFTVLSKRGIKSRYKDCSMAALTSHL

B1: p11 fC/hmC duplex (dsDNA)
DNA 1: AAAAAAAAAAACGAAAAAAAAAAA
DNA 2: TTTTTTTTTTTCGTTTTTTTTTTT
modifications: 5-formylcytosine at C12 of strand 1; 5-hydroxymethylcytosine at C12 of strand 2 (o3116/o3112)
Regarding B1, in data set [1] (blunt), the Kd came to 541 ± 62.7 nM.

B2: p06 mC/mC duplex (dsDNA)
DNA 1: AAAAAAAAAAACGAAAAAAAAAAA
DNA 2: TTTTTTTTTTTCGTTTTTTTTTTT
modifications: 5-methylcytosine at C12 of strand 1 and C12 of strand 2 (o2967/o2909)
B2: the Kd in data set [1] (blunt) turned out to be 26.6 ± 3.85 nM.

B3: p03 hmC/C duplex (dsDNA)
DNA 1: AAAAAAAAAAACGAAAAAAAAAAA
DNA 2: TTTTTTTTTTTCGTTTTTTTTTTT
modifications: 5-hydroxymethylcytosine at C12 of strand 1; strand 2 unmodified (o3115/o2904)
B3: the Kd in data set [1] (blunt) came to 1080 ± 101 nM.

B4: p08 fC/mC duplex (dsDNA)
DNA 1: AAAAAAAAAAACGAAAAAAAAAAA
DNA 2: TTTTTTTTTTTCGTTTTTTTTTTT
modifications: 5-formylcytosine at C12 of strand 1; 5-methylcytosine at C12 of strand 2 (o3116/o2909)
For the molecule B4, the Kd in data set [1] (blunt) came out at 197 ± 24 nM.

B5: p07 hmC/mC duplex (dsDNA)
DNA 1: AAAAAAAAAAACGAAAAAAAAAAA
DNA 2: TTTTTTTTTTTCGTTTTTTTTTTT
modifications: 5-hydroxymethylcytosine at C12 of strand 1; 5-methylcytosine at C12 of strand 2 (o3115/o2909)
On to B5, for which the dissociation constant (Kd) in data set [1] (blunt) was determined as 224 ± 24.6 nM.

B6: mC/fC duplex (dsDNA)
DNA 1: AAAAAAAAAAACGAAAAAAAAAAA
DNA 2: TTTTTTTTTTTCGTTTTTTTTTTT
modifications: 5-methylcytosine at C12 of one strand, 5-formylcytosine at C12 of the other; strand assignment not certain
B6: in data set [2], the binding result is reported as “binds”.

B7: hmC/fC duplex (dsDNA)
DNA 1: AAAAAAAAAAACGAAAAAAAAAAA
DNA 2: TTTTTTTTTTTCGTTTTTTTTTTT
modifications: 5-hydroxymethylcytosine at C12 of one strand, 5-formylcytosine at C12 of the other; strand assignment not certain
As to B7, the binding result in data set [3] is reported as “binds”.

B8: mC/hmC duplex (dsDNA)
DNA 1: AAAAAAAAAAACGAAAAAAAAAAA
DNA 2: TTTTTTTTTTTCGTTTTTTTTTTT
modifications: 5-methylcytosine at C12 of one strand, 5-hydroxymethylcytosine at C12 of the other; strand assignment not certain
As to B8, the binding result in data set [4] was “binds”.

B9: probe p03 (dsDNA)
DNA 1: AAAAAAAAAAACGAAAAAAAAAAA
DNA 2: TTTTTTTTTTTCGTTTTTTTTTTT
modifications: cytosine states of p03 not given in the material (perhaps C/C)
As for B9, the Kd in data set [5] came to 1080 ± 101 nM.

B10: p10 hmC/hmC duplex (dsDNA)
DNA 1: AAAAAAAAAAACGAAAAAAAAAAA
DNA 2: TTTTTTTTTTTCGTTTTTTTTTTT
modifications: 5-hydroxymethylcytosine at C12 of strand 1 and C12 of strand 2 (o3115/o3112)
As for B10, the Kd in data set [1] was 967 ± 89.6 nM.
